According to PMC9290910, “Neuropilin‐1 is required for endothelial cell adhesion to soluble vascular endothelial growth factor receptor 1” (The Febs Journal, 2021):

Assays:
[1] = test system: sVEGFR‐1; assay: SPR, α5β1 integrin binding to immobilized sVEGFR‐1; design: species or system human; settings: sVEGFR‐1 immobilized, α5β1 integrin 80 nM-1 μM
Description: Fig. 7 sVEGFR‐1/α5β1 integrin interaction. (A) SPR analysis of the interaction between sVEGFR‐1 and α5β1 integrin. sVEGFR‐1 is immobilized on sensor chips and α5β1 integrin is injected at different concentrations (from bottom to top: 80 nM, cyan; 160 nM, red; 350 nM, green; 600 nM, blue; and 1 μM, black). […] (B) Secondary structure representation of the 3D structure of VEGFR‐1 Ig‐like domain II. β‐strands are represented by arrows and labelled from A to H; loops are shown as tubular ribbons; the N‐ and C‐terminal ends of the domain are indicated by labels. Colour coding: peptide 12 (interacting with α5β1 integrin) is blue; Flt2‐11 peptide (interacting with NRP‐1) is yellow in the five‐residue NITVT region corresponding to the Flt2‐5 peptide (see text), and green in the remaining six‐residues region; the rest of the domain is magenta. (C) Proposed mechanism of action of Flt2‐11 peptide. Left: Light blue arrows indicate the high‐affinity interactions: (i) between NRP‐1 (yellow) and α5β1 integrin (black) on the EC membrane; and (ii) between NRP‐1 on the EC membrane and the sVEGFR‐1 substrate (green). The dark blue arrow indicates the low‐affinity interaction between α5β1 integrin on the EC membrane and the sVEGFR‐1 substrate. The low‐affinity interaction is stabilized by the two high‐affinity interactions, and the angiogenic stimulus is triggered. Centre: The Flt2‐11 peptide inhibits the high‐affinity interaction between NRP‐1 on the EC membrane and the sVEGFR‐1 substrate. The low‐affinity interaction between α5β1 integrin on ECs and the sVEGFR‐1 substrate is not sufficiently stable to trigger the angiogenic stimulus that starts upon integrin engagement. […]
(§1) SPR experiments were carried out using a BIACORE X system (Biacore AB, Uppsala, Sweden). […] The reaction was carried out in 20 mM sodium acetate at pH 5.0, which is about 2 points below the theoretical NRP‐1 isoelectric point calculated using the program pI‐tool. […]

[2] = test system: NRP‐1; assay: SPR, α5β1 integrin binding to immobilized NRP‐1; design: species or system human; settings: NRP‐1 immobilized, α5β1 integrin 20-500 nM
Description: SPR analysis of NRP‐1 interaction with α5β1 integrin or semaphorin 3A, in the absence or presence of Flt2‐11 peptide or ‘scrambled’ Flt2‐11. NRP‐1 is immobilized on sensor chip. (A) α5β1 integrin is injected at different concentrations (from bottom to top: 20 nM, cyan; 40 nM, red; 100 nM, green; 200 nM, blue; and 500 nM, black). […] (B) α5β1 integrin is injected at 200 nM concentration together with either Flt2‐11 peptide or scrambled Flt2‐11 peptide at different concentrations (no peptides, black; Flt2‐11 peptide […] and 20 μM, blue and cyan, respectively; scrambled Flt2‐11 peptide at 2 μM and 20 μM, red and purple, respectively). (C) Semaphorin 3A is injected at different concentrations (from bottom to top: 20 nM, cyan; 30 nM, red; 50 nM, green; 200 nM, blue; and 500 nM, black). […] (D) Semaphorin 3A is injected at 200 nM, and peptide Flt2‐11 at different concentrations (no peptides, black; Flt2‐11 peptide 1 μM and 10 μM blue and cyan, respectively; scrambled Flt2‐11 peptide 50 μM, red).
as §1
RU express the mass concentration‐dependent changes in the observed SPR signal, that is, the refractive index on the sensor chip surface. Changes in this signal are determined by the interaction between the immobilized protein (i.e., either NRP‐1 or VEGFR‐1) with the analyte protein (i.e., VEGFR‐1/Fc, α5β1 integrin or semaphorin 3A). […] Global fitting analyses of association and dissociation data for all ligand concentrations were carried out using BIAEVALUATION software 3.0 (Biacore, Uppsala, Sweden), which allows the ratio between association and dissociation constants (k on/k off) to be accurately determined. […]

[3] = biological target: T1, Recombinant human NRP‐1 (human, UniProt O14786 22-856); assay: SPR; BIACORE X, CM5; NRP-1 immobilised by amine coupling; analyte in HEPES-buffered saline (10 mM HEPES pH 7.4, 150 mM NaCl, 0.005% P20); global 1:1 Langmuir fit; settings: both partners purified
T1 construct: Neuropilin-1, human, recombinant soluble protein; see the vendor's datasheet (as far as I recall an extracellular fragment with a C-terminal His tag); also called Neuropilin‐1; soluble NRP‐1; source: bought: R&D Systems (3870‐N1)
T1 sequence (looked up): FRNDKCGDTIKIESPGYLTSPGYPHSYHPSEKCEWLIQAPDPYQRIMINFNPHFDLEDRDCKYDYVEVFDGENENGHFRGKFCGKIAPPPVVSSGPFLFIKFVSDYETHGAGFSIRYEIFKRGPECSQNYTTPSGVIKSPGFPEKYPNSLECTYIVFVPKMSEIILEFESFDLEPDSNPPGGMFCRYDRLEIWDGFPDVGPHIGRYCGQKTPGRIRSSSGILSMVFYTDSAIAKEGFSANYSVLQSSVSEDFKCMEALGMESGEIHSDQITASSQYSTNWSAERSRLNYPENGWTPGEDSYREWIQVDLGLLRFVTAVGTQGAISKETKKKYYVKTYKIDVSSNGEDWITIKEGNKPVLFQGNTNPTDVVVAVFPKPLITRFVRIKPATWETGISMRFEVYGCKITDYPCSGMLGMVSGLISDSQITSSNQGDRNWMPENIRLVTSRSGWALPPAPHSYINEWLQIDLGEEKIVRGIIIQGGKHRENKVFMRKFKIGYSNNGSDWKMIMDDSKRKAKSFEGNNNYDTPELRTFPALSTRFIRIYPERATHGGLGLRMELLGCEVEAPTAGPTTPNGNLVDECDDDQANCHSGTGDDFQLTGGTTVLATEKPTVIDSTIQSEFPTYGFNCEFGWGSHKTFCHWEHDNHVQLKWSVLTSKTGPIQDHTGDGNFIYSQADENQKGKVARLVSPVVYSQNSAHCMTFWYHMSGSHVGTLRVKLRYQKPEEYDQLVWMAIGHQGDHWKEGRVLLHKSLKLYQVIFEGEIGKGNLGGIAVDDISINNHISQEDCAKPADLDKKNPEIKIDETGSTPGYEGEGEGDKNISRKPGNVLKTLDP

[4] = test system: NRP‐1; assay: SPR, semaphorin 3A binding to immobilized NRP‐1; design: species or system human; settings: NRP‐1 immobilized, semaphorin 3A 20-500 nM
Description: SPR analysis of NRP‐1 interaction with α5β1 integrin or semaphorin 3A, in the absence or presence of Flt2‐11 peptide or ‘scrambled’ Flt2‐11. NRP‐1 is immobilized on sensor chip. (A) α5β1 integrin is injected at different concentrations (from bottom to top: 20 nM, cyan; 40 nM, red; 100 nM, green; 200 nM, blue; and 500 nM, black). […] (B) α5β1 integrin is injected at 200 nM concentration together with either Flt2‐11 peptide or scrambled Flt2‐11 peptide at different concentrations (no peptides, black; Flt2‐11 peptide […] and 20 μM, blue and cyan, respectively; scrambled Flt2‐11 peptide at 2 μM and 20 μM, red and purple, respectively). (C) Semaphorin 3A is injected at different concentrations (from bottom to top: 20 nM, cyan; 30 nM, red; 50 nM, green; 200 nM, blue; and 500 nM, black). […]
as §1
RU express the mass concentration‐dependent changes in the observed SPR signal, that is, the refractive index on the sensor chip surface. Changes in this signal are determined by the interaction between the immobilized protein (i.e., either NRP‐1 or VEGFR‐1) with the analyte protein (i.e., VEGFR‐1/Fc, α5β1 integrin or semaphorin 3A). […]

[5] = biological target: T2, Purified α5β1 integrin (UniProt P08648 42-1049; P05556 21-728); assay: SPR; BIACORE X, CM5; VEGFR-1/Fc captured (about 200 RU) on amine-coupled protein A; α5β1 integrin injected; HEPES-buffered saline (10 mM HEPES pH 7.4, 150 mM NaCl, 0.005% P20); 1:1 Langmuir fit; settings: both partners purified
T2 construct: integrin alpha-5 subunit; integrin beta-1 subunit; As far as I recall this product is purified from human tissue; also called integrin α5β1; source: bought: Merck Millipore (CC1052), purified, octyl‐β‐D‐glucopyranoside formulation
T2 sequence (P08648 42-1049, chain 1 of 2): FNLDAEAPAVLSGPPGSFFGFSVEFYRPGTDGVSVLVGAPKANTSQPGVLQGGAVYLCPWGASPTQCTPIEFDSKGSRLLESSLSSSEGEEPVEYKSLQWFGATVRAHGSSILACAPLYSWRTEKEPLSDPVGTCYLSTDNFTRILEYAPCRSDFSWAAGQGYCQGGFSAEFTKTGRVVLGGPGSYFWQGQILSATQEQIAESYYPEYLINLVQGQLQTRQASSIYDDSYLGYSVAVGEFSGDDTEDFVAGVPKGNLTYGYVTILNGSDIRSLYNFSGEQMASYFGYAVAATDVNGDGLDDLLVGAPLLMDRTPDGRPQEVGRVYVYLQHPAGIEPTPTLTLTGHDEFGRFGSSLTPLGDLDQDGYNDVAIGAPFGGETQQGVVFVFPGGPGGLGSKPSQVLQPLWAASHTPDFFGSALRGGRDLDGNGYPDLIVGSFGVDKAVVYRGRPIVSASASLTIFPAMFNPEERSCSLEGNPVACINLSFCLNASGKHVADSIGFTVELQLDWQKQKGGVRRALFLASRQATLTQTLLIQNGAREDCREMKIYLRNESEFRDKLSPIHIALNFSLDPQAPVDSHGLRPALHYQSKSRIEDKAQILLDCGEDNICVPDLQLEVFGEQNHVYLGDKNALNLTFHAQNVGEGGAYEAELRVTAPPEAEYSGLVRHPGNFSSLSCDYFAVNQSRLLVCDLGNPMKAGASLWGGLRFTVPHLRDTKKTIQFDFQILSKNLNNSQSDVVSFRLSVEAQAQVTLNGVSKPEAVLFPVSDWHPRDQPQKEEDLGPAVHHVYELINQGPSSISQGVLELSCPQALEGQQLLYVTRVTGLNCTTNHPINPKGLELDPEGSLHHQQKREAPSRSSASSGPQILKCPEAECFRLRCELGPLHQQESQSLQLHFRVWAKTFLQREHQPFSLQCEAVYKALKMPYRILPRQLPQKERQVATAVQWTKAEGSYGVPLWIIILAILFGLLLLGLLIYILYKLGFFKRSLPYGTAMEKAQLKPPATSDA
T2 sequence (P05556 21-728, chain 2 of 2): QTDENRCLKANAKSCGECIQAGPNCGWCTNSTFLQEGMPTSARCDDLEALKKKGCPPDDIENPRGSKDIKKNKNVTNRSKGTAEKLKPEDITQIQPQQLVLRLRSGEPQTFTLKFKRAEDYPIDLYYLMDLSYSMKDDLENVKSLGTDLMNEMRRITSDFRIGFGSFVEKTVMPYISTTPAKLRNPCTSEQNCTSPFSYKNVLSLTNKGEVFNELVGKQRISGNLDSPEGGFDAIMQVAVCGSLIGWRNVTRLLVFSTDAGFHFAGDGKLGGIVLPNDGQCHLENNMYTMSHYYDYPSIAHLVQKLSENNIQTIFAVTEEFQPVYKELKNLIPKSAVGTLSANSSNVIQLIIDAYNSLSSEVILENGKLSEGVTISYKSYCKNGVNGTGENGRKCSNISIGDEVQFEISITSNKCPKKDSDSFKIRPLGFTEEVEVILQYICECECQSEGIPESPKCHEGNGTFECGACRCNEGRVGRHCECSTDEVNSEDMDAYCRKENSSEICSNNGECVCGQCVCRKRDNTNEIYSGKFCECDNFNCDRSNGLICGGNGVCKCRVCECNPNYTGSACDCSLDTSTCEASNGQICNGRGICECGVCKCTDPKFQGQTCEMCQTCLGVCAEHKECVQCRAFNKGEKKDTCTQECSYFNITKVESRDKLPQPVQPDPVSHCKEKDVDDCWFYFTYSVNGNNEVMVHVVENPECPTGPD

Row | Molecule | k off [1] [s⁻¹] | k on [1] [M⁻¹ s⁻¹] | Kd ([1]; read-out: K D, sVEGFR‐1/α5β1 integrin) [nM] | k off [2] [s⁻¹] | k on [2] [M⁻¹ s⁻¹] | Kd ([2]; read-out: K D, NRP‐1/α5β1 integrin) [nM] | Kd [3] [nM] | koff [3] [s⁻¹] | kon [3] [M⁻¹ s⁻¹] | k off [4] [s⁻¹] | k on [4] [M⁻¹ s⁻¹] | Kd [5] [nM] | koff [5] [s⁻¹] | kon [5] [M⁻¹ s⁻¹]
1 | α5β1 integrin: Purified α5β1 integrin (CC1052), Merck Millipore | 0.00029 | 1500 | 195 ± 40 | 0.00029 | 21000 | 14 ± 4 |  |  |  |  |  |  |  | 
2 | semaphorin 3A (ligand) NYQNGKNNVPRLKLSYKEMLESNNVITFNGLANSSSYHTFLLDEERSRLYVGAKDHIFSFDLVNIKDFQKIVWPVSYTRRDECKWAGKDILKECANFIKVLKAYNQTHLYACGTGAFHPICTYIEIGHHPEDNIFKLENSHFENGRGKSPYDPKLLTASLLIDGELYSGTAADFMGRDFAIFRTLGHHHPIRTEQHDSRWLNDPKFISAHLISESDNPEDDKVYFFFRENAIDGEHSGKATHARIGQICKNDFGGHRSLVNKWTTFLKARLICSVPGPNGIDTHFDELQDVFLMNFKDPKNPVVYGVFTTSSNIFKGSAVCMYSMSDVRRVFLGPYAHRDGPNYQWVPYQGRVPYPRPGTCPSKTFGGFDSTKDLPDDVITFARSHPAMYNPVFPMNNRPIVIKTDVNYQFTQIVVDRVDAEDGQYDVMFIGTDVGTVLKVVSIPKETWYDLEEVLLEEMTVFREPTAISAMELSTKQQQLYIGSTAGVAQLPLHRCDIYGKACAECCLARDPYCAWDGSACSRYFPTAKRRTRRQDIRNGDPLTHCSDLHHDNHHGHSPEERIIYGVENSSTFLECSPKSQRALVYWQFQRRNEERKEEIRVDDHIIRTDQGLLLRSLQQKDSGNYLCHAVEHGFIQTLLKVTLEVIDTEHLEELLHKDDDGDGSKTKEMSNSMTPSQKVWYRDFMQLINHPNLNTMDEFCEQVWKRDRKQRRQRPGHTPGNSNKWKHLQENKKGRNRRTHEFERAPRSV |  |  |  |  |  |  | 24 ± 6 | 9e-05 | 3700 | 9e-05 | 3700 |  |  | 
3 | Recombinant human VEGFR‐1/Fc (Fc fusion, UniProt P17948 27-758, looked up, VEGFR-1 (Flt-1), human, recombinant Fc chimera; also called sVEGFR‐1; sVEGFR‐1/Fc; source: bought: R&D Systems (321‐FL‐050)) SKLKDPELSLKGTQHIMQAGQTLHLQCRGEAAHKWSLPEMVSKESERLSITKSACGRNGKQFCSTLTLNTAQANHTGFYSCKYLAVPTSKKKETESAIYIFISDTGRPFVEMYSEIPEIIHMTEGRELVIPCRVTSPNITVTLKKFPLDTLIPDGKRIIWDSRKGFIISNATYKEIGLLTCEATVNGHLYKTNYLTHRQTNTIIDVQISTPRPVKLLRGHTLVLNCTATTPLNTRVQMTWSYPDEKNKRASVRRRIDQSNSHANIFYSVLTIDKMQNKDKGLYTCRVRSGPSFKSVNTSVHIYDKAFITVKHRKQQVLETVAGKRSYRLSMKVKAFPSPEVVWLKDGLPATEKSARYLTRGYSLIIKDVTEEDAGNYTILLSIKQSNVFKNLTATLIVNVKPQIYEKAVSSFPDPALYPLGSRQILTCTAYGIPQPTIKWFWHPCNHNHSEARCDFCSNNEESFILDADSNMGNRIESITQRMAIIEGKNKMASTLVVADSRISGIYICIASNKVGTVGRNISFYITDVPNGFHVNLEKMPTEGEDLKLSCTVNKFLYRDVTWILLRTVNNRTMHYSISKQKMAITKEHSITLNLTIMNVSLQDSGTYACRARNVYTGEEILQKKEITIRDQEAPYLLRNLSDHTVAISSSTTLDCHANGVPEPQITWFKNNHKIQQEPGIILGPGSSTLFIERVTEEDEGVYHCKATNQKGSVESSAYLTVQGTSDKSNLE |  |  |  |  |  |  | 25 ± 4 | 0.0003 | 12000 |  |  | 195 ± 40 | 0.00029 | 1500
